# Results taken from the supplement of paper PMC12042874.
# ± gives the uncertainty stated by the source.
# Experiment: amyloid nucleation score (Sup35N fusion, yeast selection) (log enrichment); library NNK1; higher = more nucleation; inactive = no reads after selection
# How it was run: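 Yeast lacking psi expressed peptides of 20 random codons fused to Sup35N, received 100 μM copper sulfate for 24 hours, and were then grown for 7 days at 30°C on medium lacking adenine and uracil. Illumina sequencing of input and output plasmid inserts provided the reads. Nucleation scores are DiMSum log enrichments of output over input, centred on the mode of non-aggregating sequences. Any sequence with under 100 input reads was excluded.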
row,Substance,amyloid nucleation score
1,VAWLNCSTKVGL,-0.053 ± 1.3
2,VCAQFSRGRIFTAIVIGWTQ,0.857 ± 0.64
3,VCCYILAYNMFGVLAEWLCG,3.66 ± 0.069
4,VCESVNNAHAAYSAVLSVQM,-0.347 ± 0.54
5,VCFMKCLLSCAIEYSRRLDI,1.9 ± 0.64
6,VCGGETLPRVVSNGGRSPRV,0.602 ± 0.35
7,VCIIIVYRIYLSYMCPISY,-0.463 ± 0.37
8,VCLGLSQDLHKSYTVRSAT,-0.009 ± 0.41
9,VCNIPNFCQKQCLSFTTIRY,2 ± 0.12
10,VCNWVSLGVALHRALEQLGI,-1.32 ± 0.92
11,VCRQMYVLDCYS,inactive
12,VCSLSVYRTCSRDLFNFIWV,0.262 ± 0.41
13,VDCLGFLEHICGLGDIIKTK,0.341 ± 0.25
14,VDCPIECTAAGRSHDSGV,1.42 ± 0.63
15,VDGSSCFGCAGCTTRRFTSG,-0.253 ± 0.43
16,VDLALLYCDIKMQLV,1.14 ± 0.88
17,VDLLGTTDGRSRVLFRIRTR,0.151 ± 0.59
18,VDLNSGQSMNLGTYECRSNV,-1.49 ± 1.8
19,VDLPFMLAKVR,0.856 ± 0.71
20,VDLSLLIMVFQFGGVGERLR,2.15 ± 0.17
21,VDRCGFGVFATVGMSCMDSF,0.918 ± 0.45
22,VDWSVAWHWLLSSD,0.484 ± 0.49
23,VEIGFFQRHKARIFMGTRSL,-0.209 ± 0.34
24,VELQYDLYCFSSFADPLS,1.29 ± 0.6
25,VENNWIWVGRTLNATLDSHQ,0.082 ± 0.26

row,Substance,amyloid nucleation score
1,VERFDLHLSD,1.06 ± 0.6
2,VESDKCQLGTLSIMYICFFL,inactive
3,VEYSVTCFLNYY,5.71 ± 0.059
4,VFCSQGMADTLR,0.409 ± 0.84
5,VFGLAV,-0.912 ± 1.1
6,VFGLLPVSSCIVRNRRDLRN,-0.371 ± 0.27
7,VFHNYFLRTYTNRRARSVSI,2.86 ± 0.14
8,VFIYTAACP,0.492 ± 0.45
9,VFLACNMMYDTKVQTHGYRG,4.23 ± 0.07
10,VFLWDSHV,-0.505 ± 0.39
11,VFMSLESFYKYNYTHFFFRK,0.114 ± 0.39
12,VFNTVVS,-0.161 ± 0.41
13,VFSLYSTQKLSRRVIGMLGL,0.725 ± 0.81
14,VFYDVGGVSD,0.03 ± 0.48
15,VGCVWAQEDRVPT,-0.715 ± 0.83
16,VGEQPYFGVFTTRYVMARYA,0.487 ± 0.71
17,VGEQSCLLFYMKQ,0.247 ± 0.29
18,VGFGQSHGVFRCGVMRLRRG,0.192 ± 1.1
19,VGFNKL,0.013 ± 0.6
20,VGFRVDFNIDLQLFLYRNEK,0.334 ± 0.81
21,VGFVLFLANSERYCDRISFG,-0.13 ± 0.97
22,VGFYCHLCGYLVWGRWKHSA,1.18 ± 0.97
23,VGIGLSFQTEQSVCTDLLYS,-0.203 ± 0.69
24,VGLLKAAEDGVLRIGVRRSW,0.631 ± 0.8
25,VGLNMLKNFNPDLSAKDITH,-0.176 ± 1.1

row,Substance,amyloid nucleation score
1,VGRSQRMQKTLKVSVWYWIN,0.117 ± 0.7
2,VGRYFTMCFYKSMHRCRRVF,0.266 ± 0.38
3,VGTTLRFWGKLFNPVDKAIR,-0.619 ± 0.46
4,VHCLLAGRKMNFGLFCINVQ,-0.025 ± 0.68
5,VHFEGFWAFTLVDLT,0.232 ± 0.48
6,VHFRYNIVTVSPQVIKFFST,5.36 ± 0.071
7,VHLTSPYHCRVPDMNSCYGS,0.371 ± 0.91
8,VHRIYKCALRVSRADSLIVT,inactive
9,VHRQMEMIIKIVWTRAYAFT,2.33 ± 0.6
10,VHTMSLWCDISQLIVPVNRV,1.1 ± 0.52
11,VIAMDNDRYFGSVFSYIRMN,-0.147 ± 0.29
12,VIASELSSCFSLRHNVVTTS,-0.469 ± 1.2
13,VIDYVGFRHTGGGSVGFVGG,-0.387 ± 0.65
14,VIGLSQWVNSLSYRFEMQNL,4.72 ± 0.094
15,VIGSCRTCMS,0.135 ± 0.3
16,VIGVRAQYLCRHTLSVRYRK,1.67 ± 0.4
17,VILSYCLIFLK,-0.647 ± 0.48
18,VIMCYR,-0.309 ± 0.29
19,VIPVLWAVLWEAIIYEEGGA,0.778 ± 0.22
20,VIQEPKFMYLQLFVGLPCVS,4.51 ± 0.09
21,VISVNLGFFPSFVIRASVAS,5.45 ± 0.079
22,VIVARQFISPSVYGDAMDHS,1.15 ± 0.97
23,VIVVVPLFGGRLCRVVRHR,0.278 ± 0.62
24,VIWSNWRRRVPEGPDERYKR,0.649 ± 0.46
25,VKCPVGDDHWGSRGDASVIT,-0.004 ± 0.8

row,Substance,amyloid nucleation score
1,VKCYLDLINFRYLLDLGDEA,0.066 ± 0.2
2,VKGLRSLGSTCRSLKDGITV,inactive
3,VKGQHFQLKIVRRLRTFRHH,3.79 ± 0.066
4,VKGVVYAGH,-1.44 ± 1.8
5,VKKGILLSVLDASFRTSVYE,-0.424 ± 0.88
6,VKLGDNNTRQLTYSGS,1.71 ± 0.73
7,VKQTGLVARMRWVTGLARDG,-0.921 ± 1.3
8,VKVCSSSMRFNVL,0.689 ± 0.58
9,VKVIVIHAAC,-0.256 ± 0.31
10,VKVRFIRIYYFFCNSKDFRG,-0.308 ± 0.31
11,VKVVALRIWRSEDLVVRFWG,0.562 ± 0.78
12,VKYWFVVGVVLSWFTER,-0.304 ± 0.24
13,VLDGNKLQSRSLSCSSWYLS,4.03 ± 0.12
14,VLFHHSSQIRVI,inactive
15,VLGDSARVCSGDGV,0.494 ± 0.74
16,VLGKLEWCNLSSVTRAPCFM,0.14 ± 0.71
17,VLGLGSC,-0.15 ± 0.54
18,VLGMAEATADFSPIWVSKCS,0.455 ± 1.4
19,VLGSKKWDDLGYLYCRLCTH,0.64 ± 0.65
20,VLGYAFYCYLCRNLRRNNFS,0.864 ± 0.53
21,VLIFWWIMKGRFWVMCSAGY,0.621 ± 0.89
22,VLISPGFLSVARCLSLDTLF,-0.343 ± 0.33
23,VLKCHSGSCRIYTNDSYVAL,0.387 ± 0.17
24,VLLDGAKMSESAEGGISALW,-0.161 ± 0.46
25,VLLSQIVGIWAL,-0.642 ± 0.67

row,Substance,amyloid nucleation score
1,VLLVGVSDESRSRSPQGMSP,0.243 ± 0.84
2,VLMFIINSCKR,7.028 ± 0.052
3,VLMMLNGTDVKWMESANELS,0.49 ± 0.41
4,VLMMVLGRWDTSSVMFIMMV,0.343 ± 0.97
5,VLPLQKPRDVGSVISARQWG,0.837 ± 0.53
6,VLPRVWCCNADNDSIVDFRG,2.35 ± 0.097
7,VLRQMS,1.67 ± 0.19
8,VLRWLRKRSFSI,-0.076 ± 0.6
9,VLSEVDWLSIFHGWMFGVRC,0.434 ± 1.4
10,VLSPFTVKIDIKSKISVLGP,4.11 ± 0.15
11,VLSPKSNIGDMSLIFMNTAA,0.54 ± 0.79
12,VLSRIHCCRTPVDNGFRPQG,-0.95 ± 0.94
13,VLTLSTKLCLHRGGWTTKPT,4.2 ± 0.068
14,VLTTS,-0.086 ± 0.26
15,VLVHKDSG,-0.852 ± 0.71
16,VLVMVEFTMLEALWRCLAVG,-0.297 ± 0.5
17,VMCAT,-0.048 ± 0.59
18,VMFTTRSWSGDNVFLCV,inactive
19,VMLGGSPHMPIAN,0.047 ± 0.41
20,VMNENI,inactive
21,VMTWHL,-0.73 ± 0.45
22,VMVFGSMPVDDLLHFWLECY,-0.102 ± 0.42
23,VNASELEYKFTLLVQWMIRR,1.31 ± 0.32
24,VNEIRT,-0.153 ± 1.2
25,VNGTG,-0.252 ± 0.97

row,Substance,amyloid nucleation score
1,VNLRCRSTLEGSN,-0.077 ± 0.31
2,VNLYGVLMGSLLGGQRQHDV,-1.1 ± 1.9
3,VNMNELRNNRLSSVVFLVVG,2.09 ± 0.21
4,VNQDAGDMKSVRKRAMTRLC,1.06 ± 0.56
5,VNSTMVPRVLME,0.935 ± 0.69
6,VNSVWNGNR,-0.218 ± 0.71
7,VPCGKLIISGGVQNCIYYWE,7.306 ± 0.056
8,VPCNYKGSLSGRRYLSAKQS,0.011 ± 0.34
9,VPLGSDSNHNANVTCYFASA,-0.078 ± 0.37
10,VPNEYGNSEVRLLDLLGDLE,-0.435 ± 0.36
11,VPRYGTLEGANESDLFGW,0.282 ± 0.78
12,VPSLSPFGRKMFHIRSL,inactive
13,VPTVCYFSNQVR,-0.434 ± 0.33
14,VPVLLNARIRI,-1.1 ± 0.81
15,VQCFLAQRSVDSGATELIIV,0.114 ± 0.59
16,VQCVHLSNME,0.105 ± 0.72
17,VQDVYENFSSPQNIGVMRAS,0.956 ± 0.81
18,VQRELFLVLHHTSVGRGSAP,1.08 ± 0.24
19,VQYNLTCNYY,4.01 ± 0.14
20,VRADFALTWLLGVCRVWCCR,0.247 ± 0.36
21,VRAPRSVWRSFAAA,-0.107 ± 0.59
22,VRECRSMERTTHQVCTWGGA,0.078 ± 1.4
23,VRGVSVGSYKSVAELGGTQT,-0.449 ± 1.3
24,VRHTQHRSSL,-1.62 ± 1.3
25,VRISWRGGGPLSCDVCACMT,0.479 ± 1.2

row,Substance,amyloid nucleation score
1,VRLFLCFARSMDVRYFILVG,0.459 ± 0.57
2,VRNWWDDNYSFTHAYLSTDG,1.01 ± 0.66
3,VRRDQDRPFSTMRQGLRFGH,0.248 ± 0.31
4,VRTLRTLAGLRRLLINKS,-0.137 ± 0.54
5,VRVMILHLSDILYYLWYGTI,5.22 ± 0.078
6,VRYMSLWGIVSRVCGIRMER,1.23 ± 0.56
7,VSCSDSMAFPSKSCF,0.712 ± 0.34
8,VSEFGFIVF,-0.315 ± 0.76
9,VSKRFRFLRTLFIEECDLRH,0.576 ± 0.32
10,VSLYM,0.924 ± 0.97
11,VSQVVCGMSYFGDCAIRQES,0.153 ± 0.5
12,VSRMP,3.21 ± 0.12
13,VSSLWFKDYQYVFDDCYAKP,-0.258 ± 0.56
14,VSSTYNSFRFVSLGKFNHHC,2.71 ± 0.17
15,VSTCAAR,-0.383 ± 0.95
16,VSTNSDSLLGNCRKNPVHPS,1.03 ± 0.79
17,VSTSLGHLVDWGKSM,inactive
18,VSVFLHAVITDPS,1.9 ± 0.46
19,VSVFNAQFIDRRGCR,5.16 ± 0.063
20,VSVQMAGIF,-0.863 ± 0.54
21,VSVSRGRTFSFSIGSYRIGR,3.11 ± 0.091
22,VSVTLLFFTVPIQGRVMQFS,0.148 ± 0.29
